From article PMC5570905, “Phytochrome-interacting factors directly suppress MIR156 expression to enhance shade-avoidance syndrome in Arabidopsis”
Changes are numbered by the printed parent chain.

T1: GST-PIF5 bHLH domain (Arabidopsis thaliana, UniProt Q84LH8 259-310)
T1 sequence: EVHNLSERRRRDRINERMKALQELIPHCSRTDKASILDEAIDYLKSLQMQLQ

B1: MIR156E mutant probe (E03/E04) (dsDNA)
DNA 1: CATATTCGTTCCCACTGACCTTCTCCTCAGGGGCTGACTGACCTATTCCCACGCCGAAAG
DNA 2: CTTTCGGCGTGGGAATAGGTCAGTCAGCCCCTGAGGAGAAGGTCAGTGGGAACGAATATG
B2: MIR156E probe (E01/E02) (dsDNA)
DNA 1: CATATTCGTTCCCACCACGTGTCTCCTCAGGGGCTGACCACGTGATTCCCACGCCGAAAG
DNA 2: CTTTCGGCGTGGGAATCACGTGGTCAGCCCCTGAGGAGACACGTGGTGGGAACGAATATG
B3: MIR156F probe (E05/E06) (dsDNA)
DNA 1: AACAAACCCCATTACGACACGTGACAGGCTGGGCATTCTCCACATGCTTTCTTGCCGAAA
DNA 2: TTTCGGCAAGAAAGCATGTGGAGAATGCCCAGCCTGTCACGTGTCGTAATGGGGTTTGTT
B4: MIR156F mutant probe (E07/E08) (dsDNA)
DNA 1: B3 DNA 1 with C18T, A19G, C20A, G21C, T22C, G23T
DNA 2: B3 DNA 2 with C38T, A39G, C40A, G41C, T42C, G43T

Molecular target: T1, GST-PIF5 bHLH domain
Experiment: EMSA; Beyotime EMSA kit binding buffer (composition not stated), 20 min, room temperature, 5% native PAGE; 50x and 100x unlabeled competitor
Details: protein: recombinant, tags: N-terminal GST (pGEX-4T-1), chain copies: 2, label: biotin

| Binder | binding result (blunt) | binding result (60 nt strands) |
| --- | --- | --- |
| B1 | no binding | – |
| B2 | binds | – |
| B3 | binds | – |
| B4 | – | no binding |
